Measurements reported in US20150020238.

Biological target: EGFP-hTNF-α fusion protein comprising the enterokinase-recognizing sequence, P01375
Sequence (P01375 other isoform, or with tags, fused parts or gaps): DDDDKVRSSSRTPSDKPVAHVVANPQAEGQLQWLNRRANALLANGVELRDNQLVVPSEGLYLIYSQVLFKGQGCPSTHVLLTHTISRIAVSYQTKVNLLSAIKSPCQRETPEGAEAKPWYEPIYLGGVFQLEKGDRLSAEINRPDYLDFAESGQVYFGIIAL

B1: human enterokinase light chain protein produced in transformed rice suspension cells (protein)
chain: IVGGSNAKEGAWPWVVGLYYGGRLLCGASLVSSDWLVSAAHCVYGRNLEPSKWTAILGLHMKSNLTSPQTVPRLIDEIVINPHYNRRRKDNDIAMMHLEFKVNYTDYIQPICLPEENQVFPPGRNCSIAGWGTVVYQGTTANILQEADVPLLSNERCQQQMPEYNITENMICAGYEEGGIDSCQGDSGGPLMCQENNRWFLAGVTSFGYKCALPNRPGVYARVSRFTEWIQSFLH
- endopeptidase activity: exhibited the activity of the human enterokinase light chain protein, i.e., recognizing and cleaving the DDDDK amino acid sequence
